Results as given in publication PMC3179271.

What was measured:
[1] = target: FLAG-V5-WASP (Drosophila); assay: co-IP
[2] = target: FLAG-V5-Blow (Drosophila); assay: co-IP

## FLAG-Sltr (natural protein)
[1]
  Kd: 6.7 nM
[2]
  Kd: 48.1 nM
